The target in experiment [1] is pyruvate kinase M2 (PKM2), wild type, purified recombinant human (human) (UniProt P14618). Kind of experiment: native MS; time course over 20 min, 10 µM PKM2 with 5 µM FBP and 400 µM Phe; ratio of the tetramer 32+ peak to the dimer 22+ peak, two-state sigmoidal model; dimers and monomers to tetramer.
For experiment [2] the target is unchanged. Kind of experiment: native MS; nano-ESI, 10 µM PKM2 in 200 mM ammonium acetate pH 6.8, no FBP added (PKM2^apo*, <25% co-purified FBP); also with 300 µM Phe alone (fewer tetramers, more dimers).

For orientation: stoichiometry N means the number of molecules, sites or subunits per partner or assembly.

Sequence of pyruvate kinase M2 (PKM2), wild type, purified recombinant human, P14618-1 1-531 (enzyme; other documents disagree on this pair) (P14618 whole entry): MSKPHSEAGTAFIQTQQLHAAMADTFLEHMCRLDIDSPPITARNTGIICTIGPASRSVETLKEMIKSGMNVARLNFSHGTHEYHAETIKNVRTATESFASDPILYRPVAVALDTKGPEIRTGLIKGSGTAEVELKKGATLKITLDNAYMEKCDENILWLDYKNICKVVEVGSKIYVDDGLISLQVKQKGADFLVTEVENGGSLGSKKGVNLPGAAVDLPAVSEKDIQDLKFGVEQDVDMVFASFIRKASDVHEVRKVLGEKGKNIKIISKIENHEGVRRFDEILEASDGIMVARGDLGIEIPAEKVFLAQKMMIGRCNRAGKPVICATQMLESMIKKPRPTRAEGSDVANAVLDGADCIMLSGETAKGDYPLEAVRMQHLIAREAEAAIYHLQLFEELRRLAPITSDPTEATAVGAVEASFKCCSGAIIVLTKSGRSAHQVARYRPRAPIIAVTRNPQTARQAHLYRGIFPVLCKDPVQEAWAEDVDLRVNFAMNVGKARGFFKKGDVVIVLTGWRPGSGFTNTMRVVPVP

Consider “pyruvate kinase M2 (PKM2), wild type, purified recombinant human, P14618-1 1-531 (enzyme; other documents disagree on this pair)”, for which the ktet (kinetics of tetramerisation with half-stoichiometric FBP and Phe) in experiment [1] is 812 s. Moreover, the stoichiometry N in experiment [2] was found to be 2.

Values taken from article PMC6636998.
